# Source: patent US8927280B2, “Compositions and methods for promoting the generation of definitive endoderm” (President and Fellows of Harvard College, priority 2009, dated 2015)
# What was measured:
# [1] = tested on: endoderm derived from Pdx1-GFP mouse ES cells; assay: Differentiation of induced endoderm into Pdx1+ pancreatic progenitors; assay type: cell-based
# Protocol: (§1) Mouse ES cells were routinely cultured on irradiated CF-1 MEF feeder cells in DMEM (Gibco) media supplemented with 15% Fetal Bovine Serum (HyClone FBS, Invitrogen), 2 mM L-glutamine (L-Glu, Gibco), 1.1 mM 2-mercaptoethanol (Gibco), 1 mM nonessential amino acids (Gibco), 1× penicillin/streptomycin (P/S, Gibco) and 5×10^5 units LIF (Chemicon). Cells were passaged at the ratio of 1:6-1:12 every 2-3 days using 0.25% trypsin. To generate the starting population, mouse ES cells was cultured on MEF feeder cells until they reached 80-90% confluence. Prior to differentiation, ES cells were passaged onto gelatin coated plates for 30 min to remove MEFs. MEF depleted ES cells were seeded at 2500 cells per cm^2 on gelatinized plates. After overnight culture, cells were exposed to 25 ng/ml Wnt3a (R&D Systems)+50 ng/ml recombinant Activin A (R&D Systems) or 500 ng/ml Nodal (R&D Systems) in DMEM (Gibco) supplemented with 1×L-Glu and 0.2% FBS (Gibco) for 1 day, then Activin A or Nodal in the same media and cultured for 4-6 days to induce endoderm differentiation. For the chemical inductions, compounds IDE1 and IDE2 (provided by Stuart L. Schreiber) were added at 5 μM concentration in the differentiation media. For pancreatic progenitors induction, the cells were transferred to 50 ng/ml FGF10 (R&D Systems), 0.75 μM KAAD-cyclopamine (Calbiochem) and 2 μM RA (Sigma) or Indolactam V 330 nM (Axxora) in DMEM supplemented with 1×L-Glu, 1×PS, 1×B27 (Invitrogen) for 4 days. SHB431542 was purchased from Sigma. All stock compounds were made with either DMSO or PBS
# (§2) Cells were fixed in 4% paraformaldehyde (Sigma) in PBS for 20 min at 4° C. followed by a wash with PBS. Cells were blocked with 10% donkey serum (Jackson Immunoresearch) in PBS/0.1% Triton X and incubated with primary antibodies overnight at 4° C. Secondary antibodies were incubated for 1 h at room temperature. The following antibodies and dilutions were used: goat anti-SOX17, (1:500 R&D systems); rabbit anti-PDX1 (1:200, Chemicon), rabbit anti-FoxA2 (1:500; Upstate), rabbit anti-Dab2 (1:200, Santa Cruz), rabbit anti-SPARC (1:200, Santa Cruz,), mouse anti-AFP (1:100, Sigma), anti-Gata6 (1:50, Santa Cruz Biotech), goat anti-HNF6 (1:200, Santa Cruz Biotech), rabbit anti-RFP/DsRed (1:300, MBL), rabbit anti-GFP (1:200, Molecular Probes). Secondary antibodies were: rhodamine Red-X-conjugated donkey anti-goat antibody, 1:200 (JIRL), Alexa-488-conjugated goat anti-mouse and Alexa-594-conjugated goat anti-rabbit antibodies (1:300, Molecular Probes). Nuclei were visualized by Hoechst 33342 (1:1000, Molecular Probes). Images were taken using an Olympus IX70 Microscope. For quantification images were analyzed for the frequency of SOX17+, FoxA2+ or Pdx1+ cells using Metamorph image analysis software (Molecular Devices) and at least 6 images per well were collected. Data were confirmed in four independent experiments.
# Pancreatic progenitors appear in the pancreatic bud at E9.5 and are marked by the expression of the transcription factor Pdx1. […] Using Pdx1-GFP knock-in (Micallef et al., 2005) mouse ES cells the inventors induced definitive endoderm using either of the hit compounds and cultured cells in various conditions for additional six days.
# [2] = tested on: mouse ES cells; assay: Sox17 endoderm induction in mouse ES cell monolayer cultures; assay type: cell-based; conditions: for percent of total cells Sox17/dsRed double positive: Sox17-dsRed mouse ES cells, day 6, low serum
# Protocol: as §1, §2
# Endoderm formation was monitored by Sox17 expression by either flow cytometry detection of Sox17/DsRed or immunofluorescence using anti-Sox17 antibodies. Cells labeled by antibody staining were quantified using Metamorph software ad percentage of total cell number (based on Hoechst 33342 nuclei staining). All conditions were tested in either tri- or quadruplicates.
# [3] = tested on: Smad2; assay: Western blot analysis of Smad2 phosphorylation in ES cell lysates; assay type: cell-based, mouse; conditions: for phosphorylation of Smad2 by IDE1 or IDE2 in the presence of the ALK4/5/7 inhibitor: mouse ES cells, co-treatment; for phosphorylation of Smad2 / activation of the TGF-β pathway: ES cell lysates, after 24 hrs or longer
# Protocol: Cells were lysed in 1×RIPA lysis buffer in the presence of protease inhibitor mixture (Roche)/1% phosphatase inhibitor mixture (Roche). Proteins were separated by 10% Tris-Glycine SDS/PAGE (Bio-rad) under denaturing conditions and transferred to a nitrocellulose membrane. After blocking with 5% skim milk in PBS/0.1% Triton X, the membrane was incubated with primary antibodies against phospho-Smad2 (1:1000, Cell Signaling) overnight at 4° C. The membrane was then washed, incubated with anti-mouse/rabbit peroxidase-conjugated affinity-purified secondary antibody (1:1000, Cell Signaling) at room temperature for 1 h, and developed by SuperSignal chemiluminescence (Pierce).
# [4] = tested on: human ES cells (HUES 4 and 8); assay: Sox17 endoderm induction in human ES cells; assay type: cell-based
# Protocol: Human embryonic stem cell lines were cultured essentially as described {Cowan, 2004 #6}. Briefly, HUES4, HUES8 and HUES9 cells are routinely cultured on irradiated CF-1 MEF feeder cells in KnockOut DMEM (Gibco) supplemented with 10% KnockOut Serum Replacement (Gibco), 10% human plasma (Invitrogen), 2 mM L-glutamine (L-Glu, Gibco), 1.1 mM 2-mercaptoethanol (Gibco), 1 mM nonessential amino acids (Gibco), 1× penicillin/streptomycin (PS, Gibco) and 10 ng/ml bFGF (Invitrogen). Cells are split at the ratio of 1:10-1:12 every 4-5 days by using 1 mg/ml collagenase type IV. To induce endoderm formation, HUES cells was cultured on MEF feeder cells till 80-90% confluent, then treated with 100 ng/ml Activin A in advanced RPMI (Gibco) supplemented with 1×L-Glu and 0.2% FBS (Gibco), or with combination of 25 ng/ml Wnt3a (R&D systems)+100 ng/ml Activin A (R&D systems) or were exposed to compounds in the same media. At days 4 and 6 of culture cells were analysed for endodermal marker expression, Sox17.
# as §2
molecule,measurement,setting,value
"CC(C)[C@H]1C(=O)N[C@H](CO)Cc2c[nH]c3cccc(c23)N1C [Indolactam V, (2S,5S)-1,2,4,5,6,8-Hexahydro-5-(hydroxymethyl)-1-methyl-2-(1-methylethyl)-3H-pyrrolo[4,3,2-gh]-1,4-benzodiazonin-3-one]",increase of Pdx1+ cells above control treatment at day 12,[1]; IDE1 or IDE2 followed by ILV,10 fold
same,percent Pdx1-GFP expressing pancreatic progenitors at day 6,"[1]; IDE1 or IDE2 induced mouse endoderm, second step treatment",51±7.4%
same,yield of pancreatic progenitors compared to a growth factor based approach,[1]; applied to IDE1 or IDE2 derived endoderm,higher yields of pancreatic progenitors
same,percent of total cells Pdx1+ at day 12,[1]; cultures treated initially with IDE1 or IDE2 and followed by ILV,50%
same,increase in Pdx1+ cell number compared to known published protocols,[1]; two-step treatment,4 fold
same,"percent of Pdx1+ cells also expressing other pancreatic progenitor markers, including HNF6",[1]; two-step treatment,92±5%
same,increase in Pdx1+ cell number compared to the control DMSO treated,"[1]; two-step treatment, Pdx1 antibody staining",10 fold
same,percent of cells positive with Pdx1 antibodies,"[1]; two-step treatment: IDE1 and/or IDE2, then Indolactam V",53±6.4%
"NC(=O)c1ccc(-c2nc(-c3ccc4c(c3)OCO4)c(-c3ccccn3)[nH]2)cc1 [SB43125, reference compound]",induction of Sox17 protein under co-treatment of IDE1 or IDE2 with the ALK4/5/7 inhibitor,[2]; mouse ES cells,5.6±1.3%
same,phosphorylation of Smad2 by IDE1 or IDE2 in the presence of the ALK4/5/7 inhibitor,[3],strongly attenuated
same,phosphorylation of Smad2 by IDE1 or IDE2 in the presence of the ALK4/5/7 inhibitor,[3]; listed as SB431542,significantly attenuated
"Nodal: TGF-β family growth factor, protein inducer of endoderm (protein, UniProt Q96S42 238-347, looked up) Nodal homolog: HHLPDRSQLCRKVKFQVDFNLIGWGSWIIYPKQYNAYRCEGECPNPVGEEFHPTNHAYIQSLLKRYQPHRVPSTCCAPVKTKPLSMLYVDNGRVLLDHHKDMIVEECGCL",percent of total cells Sox17/dsRed double positive,[2],45%
same,"percent of ES cells that form (definitive) endoderm, summary statement",[2]; mouse ES cells,about 45%
same,phosphorylation of Smad2 / activation of the TGF-β pathway,[3],high level
"Wnt3a: Wnt growth factor family member (protein, UniProt P56704 19-352, looked up) Protein Wnt-3a: SYPIWWSLAVGPQYSSLGSQPILCASIPGLVPKQLRFCRNYVEIMPSVAEGIKIGIQECQHQFRGRRWNCTTVHDSLAIFGPVLDKATRESAFVHAIASAGVAFAVTRSCAEGTAAICGCSSRHQGSPGKGWKWGGCSEDIEFGGMVSREFADARENRPDARSAMNRHNNEAGRQAIASHMHLKCKCHGLSGSCEVKTCWWSQPDFRAIGDFLKDKYDSASEMVVEKHRESRGWVETLRPRYTYFKVPTERDLVYYEASPNFCEPNPETGSFGTRDRTCNVSSHGIDGCDLLCCGRGHNARAERRREKCRCVFHWCCYVSCQECTRVYDVHTCK",synergy / combined effect on Sox17 induction,"[2]; mouse ES cells, co-treatment",no significant effect
"Activin A: recombinant TGF-β family growth factor, protein inducer of endoderm (protein, UniProt P08476 311-426, looked up) Inhibin beta A chain: GLECDGKVNICCKKQFFVSFKDIGWNDWIIAPSGYHANYCEGECPSHIAGTSGSSLSFHSTVINHYRMRGHSPFANLKSCCVPTKLRPMSMLYYDDGQNIIKKDIQNMIVEECGCS",percent of total cells Sox17/dsRed double positive,[2],45%
same,"percent of ES cells that form (definitive) endoderm, summary statement",[2]; mouse ES cells,about 45%
same,% of Sox17+ cells compared to IDE1 or IDE2 at all tested time points,"[2]; mouse ES cells, 14 days of treatment",significant but lower % of Sox17+ cells
same,percentage of cells expressing Sox17 at day 2 of treatment,"[2]; mouse ES cells, day 2",13%
same,percentage of cells expressing Sox17 at day 4 of treatment,"[2]; mouse ES cells, day 4",28%
same,phosphorylation of Smad2 / activation of the TGF-β pathway,[3],high level
same,"percent of cells expressing Pdx1 after FGF10, KAAD-cyclopamine and retinoic acid","[1]; label = inducer of the starting endoderm, mouse ES cells",12.1±4%
same,percent of cells expressing Sox17,"[4]; HUES cells, 4 days, IDE1 100 nM, IDE2 200 nM",64±6.3%
same,increase of Sox17 expression compared to the vehicle treatment,"[4]; human ESC cultures, 6 days",4 fold
same,percent of total cells expressing Sox17 after 6 days,"[4]; human ESC cultures, 6 days",55-65%
